Data taken from the supplement of paper PMC9732359.
± gives the uncertainty stated by the source.

Experiment: protein stability index of a GFP-peptide fusion (yeast GPS) (PSI 1-4); higher = more stable; sorted into four equal gates, so the index is relative within each strain
Outline: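 The protein stability index of a peptide was calculated by multiplying its read frequency in each gate by that gate's number and adding the products. The peptides were tiled 17-residue stretches of yeast proteins, fused downstream of GFP on a Cherry-expressing plasmid and carried in yeast as a pooled library. Mid-log cultures in leucine-free medium were sorted into four equal gates by GFP/Cherry ratio, and each gate's plasmids were PCR-amplified and Illumina-sequenced.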

| Sequence | protein stability index (doa10∆) | protein stability index (pdr5∆) | protein stability index (san1∆) | protein stability index (ubr1∆) |
| --- | --- | --- | --- | --- |
| IRALQPKLKEGALHFVQ [YIL149C/MLP2] | 2.77 ± 0.074 | 2.06 ± 0.077 | 2.17 ± 0.068 | 2.69 ± 0.071 |
| IRENKVTYSRVSKKVDV [BRN1] | 2.76 ± 0.1 | 2.93 ± 0.11 | 2.94 ± 0.081 | 3.04 ± 0.087 |
| IRFRIEREVFVDVKPKS [RPC25] | 2.13 ± 0.12 | 2.66 ± 0.16 | 2.16 ± 0.13 | 2.12 ± 0.25 |
| IRITSLQGDLTFTKKCL [SIR4] | 2.87 ± 0.068 | 2.71 ± 0.078 | 2.81 ± 0.085 | 2.79 ± 0.059 |
| IRKFFGLSKEDDVRDFV [RPS6A] | 3.43 ± 0.1 | 3.35 ± 0.098 | 3.38 ± 0.12 | 3.32 ± 0.098 |
| IRKIVRKDENQFSYVDS [AAR2] | 3.18 ± 0.12 | 3.14 ± 0.12 | 3.03 ± 0.073 | 3.12 ± 0.076 |
| IRNARSIRAEAVAASST [POP1] | 3.13 ± 0.24 | 2.54 ± 0.23 | 2.5 ± 0.14 | 2.19 ± 0.1 |
| IRNEGSDAEEEEGEYKN [ISW2] |  |  |  | 3.44 ± 0.11 |
| IRTRRAAELLDKRIVIS [DIS3] | 1.5 ± 0.11 | 1.81 ± 0.1 | 1.51 ± 0.17 | 1.84 ± 0.1 |
| IRVLFKENGQLIGAATK [SEC65] | 1.97 ± 0.068 | 2.12 ± 0.11 | 2.17 ± 0.12 | 2.38 ± 0.079 |
| IRYNSVEIQEVPRTADR [RPC82] | 2.52 ± 0.063 | 2.64 ± 0.044 | 2.88 ± 0.079 | 2.79 ± 0.048 |
| ISDVKIQVAAFIYGMSA [PRP8] |  | 2.17 ± 0.17 | 1.84 ± 0.12 | 1.94 ± 0.14 |
| ISELPPQIRQEIEQLDQ [YGL172W/NUP49] | 2.98 ± 0.084 | 3.06 ± 0.061 | 2.65 ± 0.088 | 3.06 ± 0.049 |
| ISIKDNKLVMKSKFNKS [GAL11] | 2.51 ± 0.057 | 2.59 ± 0.064 | 3.2 ± 0.047 | 2.08 ± 0.068 |
| ISKQKSKLDYIFKDKEK [SMC1] | 2.78 ± 0.14 | 2.71 ± 0.12 | 2.89 ± 0.15 | 3.29 ± 0.091 |
| ISKTVRFNVVKVSAAAG [RPS11A] | 3.19 ± 0.17 | 1.6 ± 0.13 |  | 1.64 ± 0.11 |
| ISLEALNFYITNVPKAK [SIR3] | 2.67 ± 0.065 | 2.82 ± 0.063 | 2.62 ± 0.053 | 2.87 ± 0.035 |
| ISMLVTQLQRGGTSDMN [CSI1] | 3.19 ± 0.1 | 2.53 ± 0.12 | 2.5 ± 0.11 | 2.53 ± 0.067 |
| ISQKLTNVNVKIKDVQQ [SMC3] | 1.97 ± 0.12 | 2.34 ± 0.064 | 2.27 ± 0.14 | 2.32 ± 0.19 |
| ISQVSSIHAIGSIKEDY [RPB7] | 2.27 ± 0.077 | 2.65 ± 0.067 | 2.32 ± 0.084 | 2.79 ± 0.1 |
| ISSEKLLTLTNAANVPV [RPP1A] | 2.95 ± 0.091 | 2.9 ± 0.1 | 2.93 ± 0.065 | 3 ± 0.082 |

| Sequence | protein stability index (doa10∆) | protein stability index (pdr5∆) | protein stability index (san1∆) | protein stability index (ubr1∆) |
| --- | --- | --- | --- | --- |
| ISSLGYRSHIFATNEER [SWI3] | 2.3 ± 0.072 | 1.96 ± 0.056 | 2.34 ± 0.055 | 2.33 ± 0.045 |
| ISSRTYGQRAVLKFAAH [RPS0B] | 1.78 ± 0.064 | 2.22 ± 0.095 | 2.26 ± 0.09 | 1.64 ± 0.069 |
| ISTGGFMSNDGPTLEKY [SNU114] | 2.22 ± 0.068 | 2.57 ± 0.065 | 2.31 ± 0.071 | 2.12 ± 0.053 |
| ISVSSRSDREYPLLIRM [SRP14] | 2.56 ± 0.097 | 2.44 ± 0.1 | 1.94 ± 0.13 | 2.34 ± 0.072 |
| ISVTDTEVERAKSLLKL [COR1] | 3.3 ± 0.1 | 3.26 ± 0.084 | 3.08 ± 0.053 | 3.24 ± 0.084 |
| ITDKTIKAFMDSTIGNS [IRR1] | 2.54 ± 0.15 | 2.62 ± 0.14 | 3.4 ± 0.15 | 2.41 ± 0.14 |
| ITFLIEKAKEMIRLLGS [ECM29] | 2.6 ± 0.12 | 2.26 ± 0.1 | 2.9 ± 0.11 | 1.7 ± 0.12 |
| ITIQLTRDVEPENLQVT [BRR2] | 2.79 ± 0.083 | 3.04 ± 0.13 |  | 2.85 ± 0.078 |
| ITKEVTQVNILKENNAI [YIL149C/MLP2] | 2.91 ± 0.057 | 3.14 ± 0.065 | 2.87 ± 0.085 | 3.17 ± 0.044 |
| ITKLNKEIRAFDKLLNI [SRB4] | 3.41 ± 0.098 | 3.44 ± 0.088 | 3.36 ± 0.077 | 3.15 ± 0.12 |
| ITLIDSASLHLNYGVYL [RET1] | 2.4 ± 0.076 | 2.27 ± 0.081 | 2.83 ± 0.097 | 2.4 ± 0.063 |
| ITMPATNGKPDMAILER [ARP7] | 3.17 ± 0.059 | 3.08 ± 0.059 | 3.06 ± 0.041 | 3.18 ± 0.042 |
| ITPSAMKLVPSIPPATI [RPB5] | 2.32 ± 0.054 | 2.56 ± 0.069 | 2.35 ± 0.057 | 2.5 ± 0.054 |
| ITRFGLSKMRDSVLQLA [RPO31] | 3.32 ± 0.14 | 2.96 ± 0.14 | 3.17 ± 0.08 | 3.44 ± 0.15 |
| ITYALSGYVRSRGESDD [RPS21B] | 1.74 ± 0.075 | 2.81 ± 0.11 | 2.44 ± 0.092 | 2.84 ± 0.058 |
| IVACELILSGDTTANNG [YJL039C/NUP192] | 2.66 ± 0.067 | 2.46 ± 0.068 | 2 ± 0.077 | 1.7 ± 0.032 |
| IVALSSEEINQYVTQIE [PRE6] | 3.1 ± 0.053 | 2.97 ± 0.053 | 3.11 ± 0.037 | 3.05 ± 0.042 |
| IVEADEKKGIVQASVTS [RET1] | 2.66 ± 0.15 | 2.6 ± 0.11 |  | 1.7 ± 0.086 |
| IVGQKNLNRAFNGDQVI [DIS3] | 3.12 ± 0.078 | 2.83 ± 0.087 | 2.76 ± 0.057 | 2.98 ± 0.078 |
| IVLSKAASALDEKEKQL [SIR4] | 3.35 ± 0.1 | 3.03 ± 0.11 | 3.04 ± 0.17 | 3.57 ± 0.21 |
